First the molecules themselves.
T1: biotinylated His6 peptide (bio-EGGGSHHHHHH-COOH) (synthetic peptide, SMILES …)
T1 construct: spacer EGGGS and His6; Held on streptavidin biosensors by its biotin; source: synthetic peptide (PSSM-8 peptide synthesizer)
T1 chain: Biotin-EGGGSHHHHHH-OH

T2: His6 peptide (antigen of the fluorescence assays) (synthetic peptide)
T2 construct: His6; The materials name only the biotinylated His6 peptide as synthesised; it may be the same peptide as m17
T2 chain: HHHHHH

B1: 5-TAMRA C6 maleimide double-labeled YW Fab 3D5 Q-body (Fab, V domains shown)
VH: QVQLQQSGPEDVKPGASVKISCKASGYTFTDYWMNWVKQSPGKGLEWIGDINPNNGGTSYNQKFKGRATLTVDKSSSTAYMELRSLTSEDSSVYYCESQSGAYWGQGTTVTVSA
VL: DILMTQTPSSLPVSLGDQASISCRSSQSIVHSNGNTYLEWYLQKPGQSPKLLIYKVSNRFSGVPDRFSGSGSGTDFTLKISRVEAEDLGVYYCFQGSHVPFTFGSGTKLEIK
notes: VH of antibody 3D5, as the VH of m7 with the stated change; numbers count on: Kabat numbering of the heavy chain; CH1 of the vector pUQ2, as in m7; VL of antibody 3D5, as the light chain of m7; CL of the vector pUQ2, as the light chain of m7; m9 labelled with two dyes; also called YW TAMRA; source: E. coli SHuffle T7 Express with pGro7, purified (Talon IMAC), labelled, purified (anti-FLAG M2 …)
B2: 5-TAMRA C6 maleimide double-labeled WW Fab 3D5 Q-body (Fab, V domains shown)
VH: B1 VH with Y32W
VL: B1 VL
notes: VH of antibody 3D5, as the VH of m7 with the stated changes; numbers count on: Kabat numbering of the heavy chain; CH1 of the vector pUQ2, as in m7; VL of antibody 3D5, as the light chain of m7; CL of the vector pUQ2, as the light chain of m7; m8 labelled with two dyes; also called WW TAMRA; source: E. coli SHuffle T7 Express with pGro7, purified (Talon IMAC), labelled, purified (anti-FLAG M2 …)
B3: ATTO520-C2 maleimide double-labeled WW Fab 3D5 Q-body (Fab, V domains shown)
VH: B1 VH with Y32W
VL: B1 VL
notes: VH of antibody 3D5, as the VH of m7 with the stated changes; numbers count on: Kabat numbering of the heavy chain; CH1 of the vector pUQ2, as in m7; VL of antibody 3D5, as the light chain of m7; CL of the vector pUQ2, as the light chain of m7; m8 labelled with two ATTO520 dyes; also called WW ATTO520; WW-ATTO520; source: E. coli SHuffle T7 Express with pGro7, purified (Talon IMAC), labelled, …
B4: ATTO520-C2 maleimide double-labeled YW Fab 3D5 Q-body (Fab, V domains shown)
VH: B1 VH
VL: B1 VL
notes: VH of antibody 3D5, as the VH of m7 with the stated change; numbers count on: Kabat numbering of the heavy chain; CH1 of the vector pUQ2, as in m7; VL of antibody 3D5, as the light chain of m7; CL of the vector pUQ2, as the light chain of m7; m9 labelled with two ATTO520 dyes; also called YW ATTO520; YW-ATTO520; source: E. coli SHuffle T7 Express with pGro7, purified (Talon IMAC), labelled, …
B5: anti-His scFv 3D5 WW variant (scFv, V domains shown)
VH: B1 VH with Y32W
VL: B1 VL
B6: anti-His Fab 3D5 WW variant (Fab, V domains shown)
VH: B1 VH with Y32W
VL: B1 VL
B7: 5-TAMRA C6 maleimide double-labeled wild-type Fab 3D5 Q-body (Fab, V domains shown)
VH: B1 VH with W33Y
VL: B1 VL
notes: VH of antibody 3D5, as in m7; CH1 of the vector pUQ2, as in m7; VL of antibody 3D5, as the light chain of m7; CL of the vector pUQ2, as the light chain of m7; m7 labelled with two dyes; also called Wild-type TAMRA; source: E. coli SHuffle T7 Express with pGro7, purified (Talon IMAC), labelled, purified (anti-FLAG M2 beads, G-25); not shown: Cys-tag, N-terminal, kept; His6, C-terminal, kept; myc, …
B8: anti-His Fab 3D5 YW variant (Fab, V domains shown)
VH: B1 VH
VL: B1 VL
notes: VH of antibody 3D5, as the VH of m7 with the stated change; numbers count on: Kabat numbering of the heavy chain; CH1 of the vector pUQ2, as in m7; VL of antibody 3D5, as the light chain of m7; CL of the vector pUQ2, as the light chain of m7; YW read as Tyr kept at 32H and Trp at 33H; source: E. coli SHuffle T7 Express with pGro7, purified (Talon IMAC); not shown: Cys-tag, N-terminal, kept; His6, …
B9: anti-His Fab 3D5 (wild-type) (Fab, V domains shown)
VH: B1 VH with W33Y
VL: B1 VL
notes: VH of antibody 3D5; numbers count on: Kabat numbering of the heavy chain; CH1 of the vector pUQ2 (Fd = VH-CH1); VL of antibody 3D5; CL of the vector pUQ2 (Lc = VL-CL); Linker-less pUQ2 (3D5): the (GGGS)4 linker between Cys-tag and VH was removed; His6 is followed by myc on the heavy chain; also called wild-type Fab; source: E. coli SHuffle T7 Express with pGro7, purified (Talon IMAC); not shown: …
B10: 5-TAMRA C6 maleimide-labeled wild-type scFv 3D5 Q-body (scFv, V domains shown)
VH: B1 VH with W33Y
VL: B1 VL
notes: VH of antibody 3D5, as in m1; linker between VH and VL, as in m1; VL of antibody 3D5, as in m1; m1 labelled with one dye; also called wild-type scFv Q-body; source: E. coli SHuffle T7 Express with pGro7, purified (Talon IMAC), labelled, purified (anti-FLAG M2 beads, G-25); not shown: Cys-tag, N-terminal, kept; His6, C-terminal, kept; FLAG, C-terminal, kept
B11: anti-His scFv 3D5 (wild-type) (scFv, V domains shown)
VH: B1 VH with W33Y
VL: B1 VL
notes: VH of antibody 3D5 (anti-C-terminal His tag); numbers count on: Kabat numbering of the heavy chain; linker between VH and VL of the VH-VL type scFv (synthesised gene in pEX-K4J2-1KTR); VL of antibody 3D5; VH-VL order, vector pSQ (3D5); also called wild-type scFv; source: E. coli SHuffle T7 Express with pGro7, purified (Talon IMAC); not shown: Cys-tag, N-terminal, kept; His6, C-terminal, kept; …
B12: ATTO520-C2 maleimide double-labeled wild-type Fab 3D5 Q-body (Fab, V domains shown)
VH: B1 VH with W33Y
VL: B1 VL
notes: VH of antibody 3D5, as in m7; CH1 of the vector pUQ2, as in m7; VL of antibody 3D5, as the light chain of m7; CL of the vector pUQ2, as the light chain of m7; m7 labelled with two ATTO520 dyes; also called Wild-type ATTO520; source: E. coli SHuffle T7 Express with pGro7, purified (Talon IMAC), labelled, purified (anti-FLAG M2 beads, G-25); not shown: Cys-tag, N-terminal, kept; His6, C-terminal, …

By EC50 is commonly meant the midpoint of the concentration-response curve. Low readings indicate an effect from little substance, high ones a need for much substance. In general, Kd refers to the equilibrium constant for the complex coming apart. A lower Kd goes with tighter binding. Usually koff stands for the first-order rate constant of dissociation. The low end stands for a long-lived complex, the high end for a short-lived complex. The term kon denotes the rate constant with which the complex forms. A higher kon goes with faster complex formation.

Numbering of substitutions follows the chain as printed. The star is where a group is joined. Biotin = O=C1N[C@H]2[C@H](CS[C@H]2CCCCC(=O)*)N1

One experiment deals with anti-SARS-CoV-2 VHH nanobody tagged with a hinge, 3xFLAG and C-terminal His tags. Description: other fluorescence titration.
Settings: not given
B1 displayed an EC50 of 11100 nM.
In turn, B2 had an EC50 of 11500 nM.
B3: the EC50 came to 10700 nM.
Molecule B4 gave an EC50 of 3000 nM.

For the next experiment, the target named is T1, biotinylated His6 peptide …. Nature of the experiment: BLI; biotinylated His6 peptide (100 nM) loaded on streptavidin biosensors; unlabeled protein or Q-body in two-fold dilutions in Kinetic buffer (phosphate, 150 mM NaCl, 0.002% Tween20, 0.1% BSA, pH 7.4); global fit, 1:1 model; Octet K2.
Settings: not given
In general terms: Biolayer interferometry detects binding as a change in optical thickness at a sensor tip.
Consider B5, for which the Kd was 2.88 nM, the koff was found to be 0.000835 s⁻¹ and the kon worked out at 290000 M⁻¹ s⁻¹.
As for B2, the Kd stood at 1.72 nM, the koff is 0.000455 s⁻¹ and the kon turned out to be 264000 M⁻¹ s⁻¹.
B6 showed a Kd of 0.17 nM, a koff of 2.27e-05 s⁻¹ and a kon of 132000 M⁻¹ s⁻¹.

The experiment is the same for the next values; noted with them: both partners purified.
In turn, B7 showed a Kd of 3.19 nM, a koff of 0.000672 s⁻¹ and a kon of 210000 M⁻¹ s⁻¹.
For B8, binding was put at a Kd of 0.76 nM, the koff turned out to be 0.000105 s⁻¹ and the kon worked out at 139000 M⁻¹ s⁻¹.
For the molecule B1, the Kd is 1.31 nM, the koff turned out to be 0.000512 s⁻¹ and the kon worked out at 392000 M⁻¹ s⁻¹.
In turn, B9 yielded a Kd of 3.62 nM, a koff of 9.93e-05 s⁻¹ and a kon of 27400 M⁻¹ s⁻¹.
The like results for B10 were, in that order, 26.8 nM, 0.00303 s⁻¹ and 113000 M⁻¹ s⁻¹.
The molecule B11 returned a Kd of 5.03 nM, a dissociation rate constant (koff) of 0.000425 s⁻¹ and a kon of 84500 M⁻¹ s⁻¹.

Staying with this experiment, now noted: record 2.
B2 came in with a Kd of 3.19 nM.

In a further experiment the target is T2, His6 peptide (antigen of the …). Nature of the experiment: other fluorescence titration; Q-body de-quenching in solution with His6 peptide at varied concentrations, PBST, plate reader; EC50 from a four-parameter logistic fit. To be noted: both partners purified.
Take B7: it took 132000 ± 34000 nM to reach a half-maximal effect (EC50).
For B12, the EC50 was 13800 ± 5100 nM.
The molecule B1 yielded an EC50 of 54700 ± 9500 nM.
For B2, the EC50 is 89500 ± 25400 nM.
As to B3, the EC50 came to 8800 ± 1300 nM.
In turn, B4 returned a concentration giving a half-maximal response (EC50) of 6100 ± 1400 nM.

The values are drawn from article PMC8347774, “Construction of Fluorescent Immunosensor Quenchbody to Detect His-Tagged Recombinant Proteins Produced in Bioprocess” (Sensors (Basel, Switzerland), 2021).
